B1: Nanobody T8 (VHH, not shown: small tags and cut ends)
VHH: QVQLQESGGGLVQPGGSLRLSCAASGSTSSINAMGWYRQAPGKQREPVAISSSGGDTRYAEPVKGRFTISRDNAQNKVYLQMNSLKPEDTAVYYCWLNWGRTSVNSWGQGTQVTVSS
notes: Llama nanobody; also called Nb T8; T8 Nb
B2: Nanobody T2a (VHH, not shown: small tags and cut ends)
VHH: QVQLQESGGGLVQAGGSLRLSCAASGSIFRIDAMGWYRQAPGKQRELVAHSTSGGSTDYADSVKGRFTISRDNAKNTVYLQMNSLKPEDTAVYYCNADVRTRWYASNNYWGQGTQVTVSS
notes: Llama nanobody; also called Nb T2a; T2a Nb

Legend:
[1] = target: T1, Purified human wt-CFTR (His10-SUMO*-CFTRFLAG-EGFP), PKA phosphorylated (human, UniProt P13569 1-1480, PKA phosphorylated (sites not given)); assay: cell-based or functional assay
T1 sequence (P13569 whole entry, the tested form may be a part): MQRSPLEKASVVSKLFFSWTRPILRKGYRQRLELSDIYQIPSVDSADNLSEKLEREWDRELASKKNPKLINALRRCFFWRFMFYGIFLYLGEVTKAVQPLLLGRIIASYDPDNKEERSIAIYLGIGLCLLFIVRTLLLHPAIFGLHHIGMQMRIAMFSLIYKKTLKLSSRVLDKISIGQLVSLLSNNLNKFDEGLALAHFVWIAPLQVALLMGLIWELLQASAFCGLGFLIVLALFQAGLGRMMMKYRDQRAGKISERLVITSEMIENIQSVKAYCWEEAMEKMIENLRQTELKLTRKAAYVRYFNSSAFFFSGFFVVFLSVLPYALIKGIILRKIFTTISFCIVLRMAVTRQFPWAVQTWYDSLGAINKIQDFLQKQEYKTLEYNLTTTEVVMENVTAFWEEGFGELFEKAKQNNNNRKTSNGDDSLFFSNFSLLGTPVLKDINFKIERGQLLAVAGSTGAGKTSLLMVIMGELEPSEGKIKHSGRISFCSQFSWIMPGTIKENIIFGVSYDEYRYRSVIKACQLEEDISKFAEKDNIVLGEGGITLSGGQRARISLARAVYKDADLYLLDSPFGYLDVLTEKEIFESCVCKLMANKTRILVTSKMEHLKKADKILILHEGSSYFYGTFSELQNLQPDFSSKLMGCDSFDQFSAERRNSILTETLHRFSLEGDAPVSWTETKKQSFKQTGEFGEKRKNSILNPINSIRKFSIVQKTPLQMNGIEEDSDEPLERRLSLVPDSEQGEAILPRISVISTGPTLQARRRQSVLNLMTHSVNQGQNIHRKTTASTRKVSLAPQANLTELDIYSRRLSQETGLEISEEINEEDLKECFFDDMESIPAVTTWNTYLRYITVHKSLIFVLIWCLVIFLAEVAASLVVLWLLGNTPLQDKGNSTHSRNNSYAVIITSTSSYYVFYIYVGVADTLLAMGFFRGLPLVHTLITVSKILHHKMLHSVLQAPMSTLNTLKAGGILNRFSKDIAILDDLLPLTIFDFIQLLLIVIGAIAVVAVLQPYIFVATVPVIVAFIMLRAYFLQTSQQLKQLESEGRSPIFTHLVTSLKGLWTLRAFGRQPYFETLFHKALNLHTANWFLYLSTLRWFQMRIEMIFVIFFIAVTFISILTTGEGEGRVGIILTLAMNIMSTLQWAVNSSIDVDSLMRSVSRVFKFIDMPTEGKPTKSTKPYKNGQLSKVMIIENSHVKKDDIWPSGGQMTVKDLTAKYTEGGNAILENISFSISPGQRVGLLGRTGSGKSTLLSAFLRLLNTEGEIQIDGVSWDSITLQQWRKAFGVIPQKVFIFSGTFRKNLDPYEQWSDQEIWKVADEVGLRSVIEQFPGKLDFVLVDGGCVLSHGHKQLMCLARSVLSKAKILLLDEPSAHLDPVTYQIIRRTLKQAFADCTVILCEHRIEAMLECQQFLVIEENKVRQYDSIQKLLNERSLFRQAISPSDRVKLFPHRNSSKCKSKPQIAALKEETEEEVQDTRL

[2] = target: T2, 2PT-NBD1 (human CFTR nucleotide-binding domain 1, residues 387-646, with S492P, A534P, I539T) (human, UniProt P13569 388-646, biotinylated for the ELISA (sites not given)); assay: isothermal titration calorimetry, nanobody titrated into 2PT-NBD1 at 20 °C, one-site model
T2 construct: N-terminal His6-SUMO tag removed with Ulp1; In the T2a-T4 and T27 crystals the domain was cut by papain or subtilisin
T2 sequence (P13569 388-646 V470M/S492P/A534P/I539T limits assumed): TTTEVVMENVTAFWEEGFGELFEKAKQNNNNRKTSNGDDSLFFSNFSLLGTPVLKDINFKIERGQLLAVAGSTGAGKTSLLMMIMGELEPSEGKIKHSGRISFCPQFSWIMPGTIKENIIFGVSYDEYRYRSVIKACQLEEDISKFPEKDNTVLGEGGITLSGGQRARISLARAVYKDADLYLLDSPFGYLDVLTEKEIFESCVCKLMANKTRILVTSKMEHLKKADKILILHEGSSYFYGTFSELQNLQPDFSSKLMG
Description: Isothermal titration calorimetry (ITC) was used to characterize the thermodynamic parameters of the binding (FIG. 1e and FIG. 9). […] These KD values are similar to those measured for other in vivo matured camelid heavy-chain antibodies interacting with their ligands^{[20]}. The thermodynamic parameters of the interaction of nanobodies with 2PT-NBD1 were determined based on these ITC measurements (FIG. 1e and FIG. 9).
Interactions between nanobodies and 2PT-NBD1 was carried out on NanoITC system (TA Instruments) in 0.165 ml cells at 20° C., 300 rpm syringe stirring. Proteins were extensively dialyzed in 20 mM Hepes buffer pH 7.5, 150 mM NaCl, 10% (w/v) glycerol, 10% (w/v) ethylene glycol, 2 mM ATP and 3 mM MgCl₂ for 16 h at 4° C. Heat of dilution from control experiments of each nanobody titrated into buffer was subtracted from the titration into 2PT-NBD1. Data were integrated analyzed with Origin 7.0 software (Origin Lab Corp.).

[3] = target: T1, Purified human wt-CFTR …; assay: ELISA, Twin-Strep nanobody immobilised, concentration of purified wt-CFTR varied
Source text: Quantification of at least 3 independent experiments (±SEM). (g) Immunoblot of CFTR from solubilized BHK-21 cells pulled-down with His-tagged nanobodies, including a non-CFTR nanobody as a control. Eluted nanobodies-CFTR complexes were separated by SDS-PAGE and presence of CFTR was detected with mAb 596 antibody after immunoblotting. Arrows indicate the mature (band C) and immature (band B) forms of CFTR. Representative of at least 3 independent experiments. (FIG. 4H) Flow cytometry analysis of nanobodies T2a, T8 and G3a on BHK-21 cells expressing 2PT-F508del showing increased labelling for T2a and G3a, but not T8. (FIG. 4I) Quantification of data illustrated in […]. Average of 3 independent experiments (±SEM).
Strep-Tactin XT coated microplate (iba Life Science) was coated overnight at 4° C. with Twin-Strep-tagged nanobodies (5 μg/ml). […] CFTR binding was detected with monoclonal antibodies L12B4, MM13, 154, 660, 570, 596 specific to CFTR obtained from the CFTR Antibody Distribution Program (http://cftrantibodies.web.unc.edu/available-antibodies)46 and then anti-mouse-HRP antibody (Millipore, catalogue number: AP308P, 0.5 μg/ml) for 1 h 30 min at 4° C. […] Nanobody binding was detected with Myc-tag specific antibody (Sigma, catalogue number: C3956, 0.5 μg/ml) and then anti-rabbit-HRP antibody (Cell Signaling, catalogue number: 7074S, 1:1000 dilution) for 1 h 30 min at 4° C. […]

[4] = target: T2, 2PT-NBD1 (human CFTR nucleotide-binding …); assay: ELISA, biotinylated 2PT-NBD1 on avidin-coated plate, nanobody titrated, anti-His detection; column head 'pEC50 (M)'
Description: (a) Nanobody binding to 2PT-NBD1 measured by ELISA. Biotinylated 2PT-NBD1 was immobilized on avidin-coated plates and incubated with increasing concentration of each nanobody. Binding of nanobody was followed by immunodetection of the His-tag (see Methods). Representative curve of 3 independent experiments is shown. Error bars represent the standard deviation (SD) of duplicates. Data were normalized to maximum signal for each nanobody separately. (b) Nanobody binding to F508del-2PT-NBD1 measured by ELISA as described in panel a. (c) Nanobody T4 binding to 2PT-NBD1 and F508del-2PT-NBD1. Data were normalized to maximum signal of T4 binding to 2PT-NBD1. (d) Nanobody T8 binding to 2PT-NBD1 and F508del-2PT-NBD1. Data were normalized to maximum signal of T8 binding to 2PT-NBD1.
For dose-response assays, Nunc MaxiSorp 96-well plates (ThermoScientific), were coated with 5 μg/ml NeutrAvidin Biotin-Binding protein (ThermoScientific) overnight at 4° C. and blocked 2 h at room temperature (RT) with 2% milk in phosphate-buffered saline (PBS). Each new reagent addition was preceded by three washes with 200 μl of NBD1 buffer (20 mM HEPES pH 7.5, 150 mM NaCl, and 10% (w/v) glycerol, 10% (w/v) ethylene glycol, 2 mM ATP, 3 mM MgCl₂). Then, biotinylated purified NBD1 proteins at 5 μg/ml were immobilized 30 min at RT followed by 1 h RT incubation with 100 μl various concentrations (0-20 μg/ml) of purified nanobodies. Signal detection was followed using His-tag specific antibody (Invitrogen, catalogue number: MA1-135, 1:3000 dilution) to detect the nanobodies and secondary antibody anti-mouse coupled to horse radish peroxidase (HRP) (Millipore, catalogue number: AP308P, 1:5000 dilution). 50 μl of 1-Step UltraTMB-ELISA (ThermoScientific) was used as a substrate for the peroxidase and intensity of the reaction was proportional to absorbance measured at 450 nm with SynergyMx (BioTek) after addition of 50 μl H₂SO₄ at 1M.

Binder	ATPase activity (% of PKA-phosphorylated CFTR) [1]	Kd [2]	EC50 (read off the curve) [3]	pEC50 [4]
B1	60%	39 nM	~2 nM	7.9
B2	50%	54 nM	~3 nM	7.9

— patent publication US20220289837A1 (VIB VZW, published 2022)
